{"source": "patent US20240301041A1", "about": "(Regeneron, published 2024)", "binders": {"B1": {"name": "H1xH15140P*/* (anti-Protein A) (antibody, V domains shown)", "VH": "EVQLVESGGGLVQPGGSLTLSCTASGFSFSSYVMSWVRQSPGKGLEWVSAIGGSGTSTYYRDSVKGRFTISRDNSKNTLNLQMSSLRAEDTAVYYCARDGLGHRDYWGQGTLVTVSS", "VL": "DIQMTQSPSSVSASVGDRVTITCRASQGINSWLAWYQQKPGKAPKLLIYAASSLQSGVPSRFSGSGSGTDFTLTISSLQPEDFATYYCQQANSFPFTFGPGTKVDIK", "notes": "also called anti-Protein A hIgG1*/*; H1xH15140P*/*-L1"}}, "key": {"[1]": {"molecular_target": "T1, IgG binding protein (Protein A homolog SpsQ/SpsP) on S. pseudintermedius AHDRCC 98200 (Staphylococcus pseudintermedius)", "T1 construct": "whole, on cells; also called S. pseudintermedius 98200; Staphylococcus pseudintermedius AHDRCC 98200", "experiment": "ELISA, coated S. pseudintermedius 98200, antibody 6.03E-10 M"}, "[2]": {"molecular_target": "T2, Protein A on the surface of S. aureus Newman wild-type (Staphylococcus aureus (strain Newman), UniProt P38507 37-477)", "T2 construct": "whole, on cells; also called S. aureus Newman WT; wild-type S. aureus expressing Protein A", "experiment": "ELISA, coated S. aureus Newman, antibody 6.03E-10 M"}, "[3]": {"molecular_target": "T2, Protein A on the surface of S. aureus …", "experiment": "ELISA on plate-coated S. aureus Newman WT"}, "[4]": {"molecular_target": "T3, IgG binding protein (Protein A homolog SpsQ/SpsP) on S. intermedius 27369 (Staphylococcus intermedius)", "T3 construct": "whole, on cells; also called Staphylococcus intermedius 27369", "experiment": "ELISA, coated S. intermedius 27369, antibody 6.03E-10 M"}, "[5]": {"molecular_target": "T4, IgG binding protein (Protein A homolog SpsQ/SpsP) on MRSP S. pseudintermedius 88493 (Staphylococcus pseudintermedius)", "T4 construct": "whole, on cells; also called MRSP Staphylococcus pseudintermedius 88493 (methicillin-resistant)", "experiment": "ELISA, coated S. pseudintermedius 88493, antibody 9.42E-12 M"}, "[6]": {"molecular_target": "T2, Protein A on the surface of S. aureus …", "experiment": "ELISA, coated S. aureus Newman, antibody 3.86E-08 M"}, "[7]": {"molecular_target": "T3, IgG binding protein (Protein A homolog …)", "experiment": "ELISA, coated S. intermedius 27369, antibody 1.47E-13 M"}, "[8]": {"molecular_target": "T3, IgG binding protein (Protein A homolog …)", "experiment": "ELISA, coated S. intermedius 27369, antibody 7.54E-11 M"}, "[9]": {"molecular_target": "T4, IgG binding protein (Protein A homolog …)", "experiment": "ELISA, coated S. pseudintermedius 88493, antibody 1.18E-12 M"}, "[10]": {"molecular_target": "T2, Protein A on the surface of S. aureus …", "experiment": "flow cytometry; blocking antibody 10 ug/mL, then Alexa-488 VH3 hIgG1*/* antibody (competitor) on wild-type S. aureus"}, "[11]": {"molecular_target": "T2, Protein A on the surface of S. aureus …", "experiment": "flow cytometry; blocking antibody 10 ug/mL, then Alexa-488 Fc fragment (competitor) on wild-type S. aureus"}, "[12]": {"molecular_target": "T4, IgG binding protein (Protein A homolog …)", "experiment": "ELISA, coated S. pseudintermedius 88493, antibody 1.47E-13 M"}, "[13]": {"molecular_target": "T4, IgG binding protein (Protein A homolog …)", "experiment": "ELISA, coated S. pseudintermedius 88493, antibody 3.86E-08 M"}, "[14]": {"molecular_target": "T4, IgG binding protein (Protein A homolog …)", "experiment": "ELISA, coated S. pseudintermedius 88493, antibody 4.82E-09 M"}, "[15]": {"molecular_target": "T3, IgG binding protein (Protein A homolog …)", "experiment": "ELISA, coated S. intermedius 27369, antibody 9.42E-12 M"}, "[16]": {"molecular_target": "T2, Protein A on the surface of S. aureus …", "experiment": "flow cytometry; blocking antibody 1 ug/mL, then Alexa-488 VH3 hIgG1*/* antibody (competitor) on wild-type S. aureus"}, "[17]": {"molecular_target": "T2, Protein A on the surface of S. aureus …", "experiment": "ELISA, coated S. aureus Newman, antibody 9.42E-12 M"}, "[18]": {"molecular_target": "T3, IgG binding protein (Protein A homolog …)", "experiment": "ELISA, coated S. intermedius 27369, antibody 1.18E-12 M"}, "[19]": {"molecular_target": "T1, IgG binding protein (Protein A homolog …)", "experiment": "ELISA, coated S. pseudintermedius 98200, antibody 1.47E-13 M"}, "[20]": {"molecular_target": "T5, Protein A (purified reagent) (Staphylococcus aureus, UniProt P38507 37-477)", "T5 construct": "also called Protein A (Calbiochem, 539202-5 MG); Protein A reagent", "experiment": "SPR (Biacore), mAb captured by anti-human Fc, Protein A injected, 37 C"}}, "data": [{"binder": "B1", "values": [{"measurement": "ELISA luminescent signal", "setting": "[1]", "value": 4890}, {"measurement": "ELISA luminescent signal", "setting": "[2]", "value": 647000}, {"measurement": "EC50", "setting": "[3]", "value": 0.0154, "unit": "nM"}, {"measurement": "ELISA luminescent signal", "setting": "[4]", "value": 3340}, {"measurement": "ELISA luminescent signal", "setting": "[5]", "value": 4270}, {"measurement": "ELISA luminescent signal", "setting": "[6]", "value": 838000}, {"measurement": "ELISA luminescent signal", "setting": "[7]", "value": 1510}, {"measurement": "ELISA luminescent signal", "setting": "[8]", "value": 2660}, {"measurement": "ELISA luminescent signal", "setting": "[9]", "value": 5990}, {"measurement": "VH3 antibody: S. aureus blocking activity (%)", "setting": "[10]", "value": 84.7, "unit": "%"}, {"measurement": "Fc: S. aureus blocking activity (%)", "setting": "[11]", "value": 97, "unit": "%"}, {"measurement": "ELISA luminescent signal", "setting": "[12]", "value": 3470}, {"measurement": "ELISA luminescent signal", "setting": "[13]", "value": 6360}, {"measurement": "ELISA luminescent signal", "setting": "[14]", "value": 5970}, {"measurement": "ELISA luminescent signal", "setting": "[15]", "value": 1520}, {"measurement": "VH3 antibody: S. aureus blocking activity (%)", "setting": "[16]", "value": 84.5, "unit": "%"}, {"measurement": "ELISA luminescent signal", "setting": "[17]", "value": 60500}, {"measurement": "ELISA luminescent signal", "setting": "[18]", "value": 2460}, {"measurement": "ELISA luminescent signal", "setting": "[19]", "value": 3940}, {"measurement": "Kd", "setting": "[20]", "value": 0.0986, "unit": "nM"}, {"measurement": "koff", "setting": "[20]", "value": 0.000117, "unit": "s⁻¹"}, {"measurement": "kon", "setting": "[20]", "value": "1.19e+06", "unit": "M⁻¹ s⁻¹"}, {"measurement": "t½", "setting": "[20]", "value": 1.65, "unit": "h"}]}]}
